Paper PMC5558906
Like-named read-outs stand apart in the source and are kept apart here.

Legend:
Assay in all cases: EMSA
eIF4G1 [1] = biological target: T1, eIF4G1 (Saccharomyces cerevisiae, UniProt P39935 1-952)
T1 sequence: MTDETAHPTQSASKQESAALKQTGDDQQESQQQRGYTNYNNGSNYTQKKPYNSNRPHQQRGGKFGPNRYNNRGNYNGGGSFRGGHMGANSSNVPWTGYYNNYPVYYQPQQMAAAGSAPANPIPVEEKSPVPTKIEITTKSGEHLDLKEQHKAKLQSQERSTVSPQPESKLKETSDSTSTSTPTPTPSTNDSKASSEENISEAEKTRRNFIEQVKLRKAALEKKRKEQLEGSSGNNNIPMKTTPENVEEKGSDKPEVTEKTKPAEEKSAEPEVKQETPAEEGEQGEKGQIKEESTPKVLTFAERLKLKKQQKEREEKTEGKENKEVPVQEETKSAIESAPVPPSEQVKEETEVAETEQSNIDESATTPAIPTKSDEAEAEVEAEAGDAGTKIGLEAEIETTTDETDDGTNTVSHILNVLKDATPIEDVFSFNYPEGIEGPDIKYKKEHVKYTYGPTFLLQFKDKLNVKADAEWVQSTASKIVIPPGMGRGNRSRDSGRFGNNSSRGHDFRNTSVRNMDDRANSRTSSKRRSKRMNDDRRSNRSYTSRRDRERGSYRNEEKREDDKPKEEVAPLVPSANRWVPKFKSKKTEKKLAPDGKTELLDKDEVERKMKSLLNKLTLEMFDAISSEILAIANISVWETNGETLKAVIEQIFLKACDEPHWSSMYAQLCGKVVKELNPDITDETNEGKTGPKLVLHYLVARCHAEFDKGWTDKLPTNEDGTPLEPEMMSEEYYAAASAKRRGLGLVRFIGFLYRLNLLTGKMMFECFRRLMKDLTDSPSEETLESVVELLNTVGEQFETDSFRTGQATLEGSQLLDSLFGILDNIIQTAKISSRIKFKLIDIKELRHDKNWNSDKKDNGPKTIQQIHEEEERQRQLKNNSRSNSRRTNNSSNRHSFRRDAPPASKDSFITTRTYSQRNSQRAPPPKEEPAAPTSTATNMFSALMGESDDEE

eIF4G1 [2] = biological target: T1, eIF4G1; remark: listed apart in the source
eIF4G1 [3] = biological target: T1, eIF4G1; remark: listed apart in the source

UUUUUUUUUUUUUUUUUUUUUUUUUUUUUUUUUUUUUUUU (ssRNA) [U40]
binding signal (eIF4G1 [1]): 17 fold tighter than A40

AAAAAAAAAAAAAAAAAAAAAAAAAAAAAAAAAAAAAAAA (ssRNA) [A40]
binding signal (eIF4G1 [2]): 17 fold weaker than U40

B1: U10 in CA repeats (ssRNA)
RNA: GCACACACACACACACACACAUUUUUUUUUUCACACACACACACACACACA
binding result (eIF4G1 [3]): binds
